Assay results as given in patent US11278600B2, “Human alpha-galactosidase variants” (Codexis, Inc., priority 2014, dated 2022).

Key:
Format in all cases: biochemical
[1] = HTP-analysis of supernatants pretreated with acid (MUGal hydrolysis); conditions: activity of the variant/activity of Rd4BB (SEQ ID NO: 15); challenge at pH 3.7
Method in brief: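 MUGal hydrolysis was tracked by fluorescence (Ex 355 nm, Em 448 nm) after a 30-180 min reaction at 37° C. in pH 4.8 McIlvaine/citrate buffer, stopped with 1 M sodium carbonate. Beforehand, yeast (INVSc1) culture supernatants carrying GLA variants were held 1-3 h at 37° C. in acidic McIlvaine buffer, pH 3.3-4.3.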

[2] = HTP-analysis of yeast culture supernatants, no challenge (MUGal hydrolysis); conditions: activity of the variant/activity of Rd4BB (SEQ ID NO: 15)
Method in brief: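 GLA variants expressed in yeast INVSc1, secreted into SD-Ura broth over 66-84 h at 30° C; clarified supernatants tested without challenge. Supernatant mixed with McIlvaine buffer pH 4.8 and 2 mM MUGal (citrate/KCl, pH 4.6), 37° C for 30-180 min, carbonate-quenched, fluorescence Ex 355/Em 448 nm.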

[3] = HTP-analysis of supernatants pretreated with base (MUGal hydrolysis); conditions: activity of the variant/activity of Rd4BB (SEQ ID NO: 15); challenge at pH 9.65
Method in brief: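 GLA variants secreted from yeast INVSc1; culture supernatants pre-incubated with McIlvaine buffer pH 7.0–8.2 or 200 mM bicarbonate pH 9.1–9.7 at 37° C. for 1–18 h. Residual activity: MUGal (4 mM stock) hydrolysis at pH 4.3–4.8, 37° C., 30–180 min, carbonate quench; fluorescence Ex 355/Em 448 nm.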

Row | Molecule | Relative Activity of GLA Variants After Challenge at pH 3.7 [1] | Relative Activity of GLA Variants After No Challenge (NC) [2] | Relative Activity of GLA Variants After Challenge at pH 9.65 [3]
1 | 396 (protein, Synthetic Polypeptide sequence of Variant No. 396 of mature Human GLA) LDNGLARTPTMGWLHWERFMCNLDCQEEPDSCISEKLFMEMAERMVSEGWKDAGYEYLCIDDCWMAPQRDSEGRLQADPQRFPHGIRQLANYVHSKGLKLGIYADVGNKTCAGFPGSFGYYDIDAQTFADWGVDLLKFDGCYCDSLENLADGYKHMSMALNRTGRSIVYSCEWPLYMWPFQKPNYTEIRQYCNHWRNFADIDDSWKSIKSILDWTSRNQERIVDVAGPGGWNDPDMLVIGNFGLSWDQQVTQMALWAIMAAPLFMSNDLRHISPQAKALLQDKDVIAINQDPLGKQGYQLRKGDNFEVWERPLSGDAWAVAIINRQEIGGPRSYTIPVASLGKGVACNPACFITQLLPVKRQLGFYNWTSRLKSHINPTGTVLLQLENTMQMSLKDLL | + (0.5 to 1.5 relative activity over Rd4BB (SEQ ID NO: 15)) | + (0.5 to 1.5 relative activity over Rd4BB (SEQ ID NO: 15)) | + (0.5 to 1.5 relative activity over Rd4BB (SEQ ID NO: 15))
2 | 401 (protein, Synthetic Polypeptide sequence of Variant No. 401 of mature Human GLA) LDNGLARTPTMGWLHWERFMCNLDCQEEPDSCISEKLFMEMAERMVSEGWKDAGYEYLCIDDCWMAPQRDSEGRLQADPQRFPHGIRQLANYVHSKGLKLGIYADVGNKTCAGFPGSFGYYDIDAQTFADWGVDLLKFDGCYCDSLENLADGYKHMSLALNRSGRSIVYSCEWPLYMWPFQKPNYTEIRQYCNHWRNFADIDDSWKSIKSILDWTSRNQERIVDVAGPGGWNDPDMLVIGNFGLSWDQQVTQMALWAIMAAPLFMSNDLRHISPQAKALLQDKDVIAINQDPLGKQGYQLRKGDNFEVWERPLSGDAWAVAIINRQEIGGPRSYTIPVASLGKGVACNPACFITQLLPVKRQLGFYNWTSRLKSHINPTGTVLLQLENTMQMSLKDLL | + (0.5 to 1.5 relative activity over Rd4BB (SEQ ID NO: 15)) | + (0.5 to 1.5 relative activity over Rd4BB (SEQ ID NO: 15)) | − (<0.5 relative activity over Rd4BB (SEQ ID NO: 15))
3 | 398 (protein, Synthetic Polypeptide sequence of Variant No. 398 of mature Human GLA) LDNGLARTPTMGWLHWERFMCNLDCQEEPDSCISEKLFMEMAERMVSEGWKDAGYEYLCIDDCWMAPQRDSEGRLQADPQRFPHGIRQLANYVHSKGLKLGIYADVGNKTCAGFPGSFGYYDIDAQTFADWGVDLLKFDGCYCDSLENLADGYKHMSLSLNRTGRSIVYSCEWPLYMWPFQKPNYTEIRQYCNHWRNFADIDDSWKSIKSILDWTSRNQERIVDVAGPGGWNDPDMLVIGNFGLSWDQQVTQMALWAIMAAPLFMSNDLRHISPQAKALLQDKDVIAINQDPLGKQGYQLRKGDNFEVWERPLSGDAWAVAIINRQEIGGPRSYTIPVASLGKGVACNPACFITQLLPVKRQLGFYNWTSRLKSHINPTGTVLLQLENTMQMSLKDLL | ++ (>1.5 to 2.5 relative activity over Rd4BB (SEQ ID NO: 15)) | + (0.5 to 1.5 relative activity over Rd4BB (SEQ ID NO: 15)) | − (<0.5 relative activity over Rd4BB (SEQ ID NO: 15))
4 | 400 (protein, Synthetic Polypeptide sequence of Variant No. 400 of mature Human GLA) LDNGLARTPTMGWLHWERFMCNLDCQEEPDSCISEKLFMEMAERMVSEGWKDAGYEYLCIDDCWMAPQRDSEGRLQADPQRFPHGIRQLANYVHSKGLKLGIYADVGNKTCAGFPGSFGYYDIDAQTFADWGVDLLKFDGCYCDSLENLADGYKHMSCALNRTGRSIVYSCEWPLYMWPFQKPNYTEIRQYCNHWRNFADIDDSWKSIKSILDWTSRNQERIVDVAGPGGWNDPDMLVIGNFGLSWDQQVTQMALWAIMAAPLFMSNDLRHISPQAKALLQDKDVIAINQDPLGKQGYQLRKGDNFEVWERPLSGDAWAVAIINRQEIGGPRSYTIPVASLGKGVACNPACFITQLLPVKRQLGFYNWTSRLKSHINPTGTVLLQLENTMQMSLKDLL | + (0.5 to 1.5 relative activity over Rd4BB (SEQ ID NO: 15)) | + (0.5 to 1.5 relative activity over Rd4BB (SEQ ID NO: 15)) | − (<0.5 relative activity over Rd4BB (SEQ ID NO: 15))
5 | 361 (protein, Synthetic Polypeptide sequence of Variant No. 361 of mature Human GLA) LDNGLARTPTMGWLHWERFMCNLDCQEEPDSCISEKLFMEMAERMVREGWKDAGYEYLCIDDCWMAPQRDSEGRLQADPQRFPHGIRQLANYVHSKGLKLGIYADVGNKTCAGFPGSFGYYDIDAQTFADWGVDLLKFDGCYCDSLENLADGYKHMSLALNRTGRSIVYSCEWPLYMWPFQKPNYTEIRQYCNHWRNFADIDDSWKSIKSILDWTSRNQERIVDVAGPGGWNDPDMLVIGNFGLSWDQQVTQMALWAIMAAPLFMSNDLRHISPQAKALLQDKDVIAINQDPLGKQGYQLRKGDNFEVWERPLSGDAWAVAIINRQEIGGPRSYTIPVASLGKGVACNPACFITQLLPVKRQLGFYNWTSRLKSHINPTGTVLLQLENTMQMSLKDLL | + (0.5 to 1.5 relative activity over Rd4BB (SEQ ID NO: 15)) | + (0.5 to 1.5 relative activity over Rd4BB (SEQ ID NO: 15)) | + (0.5 to 1.5 relative activity over Rd4BB (SEQ ID NO: 15))
6 | 399 (protein, Synthetic Polypeptide sequence of Variant No. 399 of mature Human GLA) LDNGLARTPTMGWLHWERFMCNLDCQEEPDSCISEKLFMEMAERMVSEGWKDAGYEYLCIDDCWMAPQRDSEGRLQADPQRFPHGIRQLANYVHSKGLKLGIYADVGNKTCAGFPGSFGYYDIDAQTFADWGVDLLKFDGCYCDSLENLADGYKHMSLALNRTGKSIVYSCEWPLYMWPFQKPNYTEIRQYCNHWRNFADIDDSWKSIKSILDWTSRNQERIVDVAGPGGWNDPDMLVIGNFGLSWDQQVTQMALWAIMAAPLFMSNDLRHISPQAKALLQDKDVIAINQDPLGKQGYQLRKGDNFEVWERPLSGDAWAVAIINRQEIGGPRSYTIPVASLGKGVACNPACFITQLLPVKRQLGFYNWTSRLKSHINPTGTVLLQLENTMQMSLKDLL | + (0.5 to 1.5 relative activity over Rd4BB (SEQ ID NO: 15)) | + (0.5 to 1.5 relative activity over Rd4BB (SEQ ID NO: 15)) | + (0.5 to 1.5 relative activity over Rd4BB (SEQ ID NO: 15))
7 | 402 (protein, Synthetic Polypeptide sequence of Variant No. 402) LDNGLARTPTMGWLHWERFMCNLDCQEEPDSCISEKLFMEMAERMVSEGWKDAGYEYLCIDDCWMAPQRDSEGRLQADPQRFPHGIRQLANYVHSKGLKLGIYADVGNKTCAGFPGSFGYYDIDAQTFADWGVDLLKFDGCYCDSLENLADGYKHMSLALNRTGRPIVYSCEWPLYMWPFQKPNYTEIRQYCNHWRNFADIDDSWASIKSILDWTSRNQERIVDVAGPGGWNDPDMLVIGNFGLSWDQQVTQMALWAIMAAPLFMSNDLRHISPQAKALLQDKDVIAINQDPLGKQGYQLRKGDNFEVWERPLSGDAWAVAIINRQEIGGPRSYTIPVASLGKGVACNPACFITQLLPVKRQLGFYNWTSRLKSHINPTGTVLLQLENTMQMSLKDLL | ++ (>1.5 to 2.5 relative activity over Rd4BB (SEQ ID NO: 15)) | + (0.5 to 1.5 relative activity over Rd4BB (SEQ ID NO: 15)) | + (0.5 to 1.5 relative activity over Rd4BB (SEQ ID NO: 15))
8 | 397 (protein, Synthetic Polypeptide sequence of Variant No. 397 of mature Human GLA) LDNGLARTPTMGWLHWERFMCNLDCQEEPDSCISEKLFMEMAERMVSEGWKDAGYEYLCIDDCWMAPQRDSEGRLQADPQRFPHGIRQLANYVHSKGLKLGIYADVGNKTCAGFPGSFGYYDIDAQTFADWGVDLLKFDGCYCDSLENLADGYKHMSRALNRTGRSIVYSCEWPLYMWPFQKPNYTEIRQYCNHWRNFADIDDSWKSIKSILDWTSRNQERIVDVAGPGGWNDPDMLVIGNFGLSWDQQVTQMALWAIMAAPLFMSNDLRHISPQAKALLQDKDVIAINQDPLGKQGYQLRKGDNFEVWERPLSGDAWAVAIINRQEIGGPRSYTIPVASLGKGVACNPACFITQLLPVKRQLGFYNWTSRLKSHINPTGTVLLQLENTMQMSLKDLL | + (0.5 to 1.5 relative activity over Rd4BB (SEQ ID NO: 15)) | + (0.5 to 1.5 relative activity over Rd4BB (SEQ ID NO: 15)) | + (0.5 to 1.5 relative activity over Rd4BB (SEQ ID NO: 15))
